Where two headings read alike, the source gives them in different places. Each block holds one molecule with its values, some of them ahead of it.
B6: full-length b5R released from the linker-cleaved SCD1-cyt b5-b5R fusion (enzyme, mouse)
chain: GMGAQLSTLSHVVLSPVWFIYSLFMKLFQRSTPAITLENPDIKYPLRLIDKEVISPDTRRFRFALPSPQHILGLPIGQHIYLSTRIDGNLVIRPYTPVSSDDDKGFVDLVVKVYFKDTHPKFPAGGKMSQYLENMKIGDTIEFRGPNGLLVYQGKGKFAIRADKKSNPVVRTVKSVGMIAGGTGITPMLQVIRAVLKDPNDHTVCYLLFANQSEKDILLRPELEELRNEHSARFKLWYTVDKAPDAWDYSQGFVNEEMIRDHLPTPGEEPLILMCGPPPMIQFACLPNLERVGHPKERCFTF

Columns and labels:
Test in all cases: SEC
[1] = target: SCD1 released from the linker-cleaved SCD1-cyt b5 fusion (mouse)
[2] = target: T1, SCD1 released from the linker-cleaved SCD1-cyt b5-b5R fusion (mouse, UniProt P13516 1-355)
T1 sequence: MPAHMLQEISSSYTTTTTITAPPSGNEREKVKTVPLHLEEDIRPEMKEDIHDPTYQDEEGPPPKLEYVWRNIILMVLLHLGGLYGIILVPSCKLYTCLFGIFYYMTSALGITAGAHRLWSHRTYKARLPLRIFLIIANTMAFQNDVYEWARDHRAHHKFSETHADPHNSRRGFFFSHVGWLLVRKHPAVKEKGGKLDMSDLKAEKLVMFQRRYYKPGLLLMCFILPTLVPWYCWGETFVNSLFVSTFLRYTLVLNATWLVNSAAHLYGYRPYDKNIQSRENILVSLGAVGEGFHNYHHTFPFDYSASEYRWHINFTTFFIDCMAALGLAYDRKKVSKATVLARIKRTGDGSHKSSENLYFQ

[3] = target: B6
[4] = target: T2, full-length b5R released from the linker-cleaved cyt b5-b5R fusion (mouse, UniProt Q9DCN2 1-301)
T2 sequence: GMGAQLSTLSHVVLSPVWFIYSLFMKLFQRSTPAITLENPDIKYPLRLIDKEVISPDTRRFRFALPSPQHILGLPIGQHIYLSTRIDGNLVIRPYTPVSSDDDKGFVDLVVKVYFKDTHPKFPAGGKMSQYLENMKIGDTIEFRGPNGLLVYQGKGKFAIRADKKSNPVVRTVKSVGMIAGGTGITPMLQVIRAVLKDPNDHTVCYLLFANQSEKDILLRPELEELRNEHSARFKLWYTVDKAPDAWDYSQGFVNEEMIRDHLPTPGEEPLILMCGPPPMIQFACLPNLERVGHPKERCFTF

[5] = target: T2, full-length b5R released from the …; remark: listed apart in the source

- binding result [2]: binds
- binding result [3]: binds
B1: full-length cyt b5 released from the linker-cleaved SCD1-cyt b5-b5R fusion (natural protein, mouse)
chain: GMAGQSDKDVKYYTLEEIQKHKDSKSTWVILHHKVYDLTKFLEEHPGGEEVLREQAGGDATENFEDVGHSTDARELSKTYIIGELHPDDRSKIAKPSDTLITTVESNSSWWTNWVIPAISALAVALMYRLYMAEDENLYFQ

- binding result [4]: binds
B2: full-length cyt b5 L121 Trp mutant released from the linker-cleaved cyt b5-b5R fusion (natural protein, mouse)
chain: MAGQSDKDVKYYTLEEIQKHKDSKSTWVILHHKVYDLTKFLEEHPGGEEVLREQAGGDATENFEDVGHSTDARELSKTYIIGELHPDDRSKIAKPSDTLITTVESNSSWWTNWVIPAISAWAVALMYRLYMAEDENLYFQ

- binding result [5]: binds
B3: full-length cyt b5 released from the linker-cleaved cyt b5-b5R fusion (natural protein, mouse)
chain: MAGQSDKDVKYYTLEEIQKHKDSKSTWVILHHKVYDLTKFLEEHPGGEEVLREQAGGDATENFEDVGHSTDARELSKTYIIGELHPDDRSKIAKPSDTLITTVESNSSWWTNWVIPAISALAVALMYRLYMAEDENLYFQ

- binding result [4]: binds
B5: full-length cyt b5 V123 Trp mutant released from the linker-cleaved cyt b5-b5R fusion (natural protein, mouse)
chain: MAGQSDKDVKYYTLEEIQKHKDSKSTWVILHHKVYDLTKFLEEHPGGEEVLREQAGGDATENFEDVGHSTDARELSKTYIIGELHPDDRSKIAKPSDTLITTVESNSSWWTNWVIPAISALAWALMYRLYMAEDENLYFQ

More lines, now with the values behind:

Molecule: full-length cyt b5 M126A released from the linker-cleaved SCD1-cyt b5 fusion (from UniProt P56395 1-134) (natural protein)
- percent of cyt b5 dissociated from the complex [1]: 50%

B4: full-length cyt b5 A124 Trp mutant released from the linker-cleaved cyt b5-b5R fusion (natural protein, mouse)
chain: MAGQSDKDVKYYTLEEIQKHKDSKSTWVILHHKVYDLTKFLEEHPGGEEVLREQAGGDATENFEDVGHSTDARELSKTYIIGELHPDDRSKIAKPSDTLITTVESNSSWWTNWVIPAISALAVWLMYRLYMAEDENLYFQ
- binding result [4]: binds

Molecule: B6
- binding result [2]: binds

From publication doi:10.1101/2021.11.13.468331 (bioRxiv, 2021)
